Assay results as given in patent publication US20170355775A1 (ELANCO TIERGESUNDHEIT, published 2017).
Positions count from the first letter of the chain named. Names may count otherwise.

T1: canine CD20 ECD2 peptide (canine)
T1 peptide: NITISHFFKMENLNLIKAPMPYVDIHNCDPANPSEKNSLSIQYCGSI

T2: canine CD20 ECD2-mFc fusion protein (canine)
T2 construct: also called cCD20 ECD2-mFc
T2 chain: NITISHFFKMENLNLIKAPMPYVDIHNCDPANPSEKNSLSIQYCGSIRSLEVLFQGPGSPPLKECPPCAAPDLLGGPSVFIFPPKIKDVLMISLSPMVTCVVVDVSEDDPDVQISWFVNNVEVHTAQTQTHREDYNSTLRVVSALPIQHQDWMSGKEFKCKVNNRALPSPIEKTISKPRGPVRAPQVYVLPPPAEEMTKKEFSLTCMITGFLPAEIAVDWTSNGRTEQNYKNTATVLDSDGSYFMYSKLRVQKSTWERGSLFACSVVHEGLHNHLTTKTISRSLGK

T3: Hum-Can CD20 ECD2 V3 (mFc fusion) (human/canine hybrid)
T3 construct: Described as a hybrid version of the original immunogen CD20 ECD2-mFc
T3 chain: T2 chain with L39P, I41T, G45Y

T4: canine CD20 on canine B cells / B cell lymphoma cells (canine, UniProt Q3C2E2 1-297)
T4 construct: whole, on cells; Endogenous CD20 on canine cells
T4 sequence (looked up): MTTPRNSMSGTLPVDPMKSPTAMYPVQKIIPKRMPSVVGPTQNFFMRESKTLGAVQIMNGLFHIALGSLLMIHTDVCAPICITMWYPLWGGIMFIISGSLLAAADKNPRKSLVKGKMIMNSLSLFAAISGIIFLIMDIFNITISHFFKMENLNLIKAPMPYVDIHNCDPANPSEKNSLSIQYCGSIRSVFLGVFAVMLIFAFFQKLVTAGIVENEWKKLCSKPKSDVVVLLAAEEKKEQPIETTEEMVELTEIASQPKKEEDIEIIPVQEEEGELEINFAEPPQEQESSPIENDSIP

T5: Hum-Can CD20 ECD2 V2 (mFc fusion) (human/canine hybrid)
T5 construct: Described as a hybrid version of the original immunogen CD20 ECD2-mFc
T5 chain: T2 chain with D24N, H26Y, D29E, L39P, I41T, G45Y

T6: Hum-Can CD20 ECD2 V4 (mFc fusion) (human/canine hybrid)
T6 construct: Described as a hybrid version of the original immunogen CD20 ECD2-mFc
T6 chain: T2 chain with D24N, H26Y, D29E

B1: 1E4-cIgGB with G34 to A substitution in VL (antibody, V domains shown)
VH: EVQLVESGGGLVKPGGSLKLSCAASGFTFSDYGMLWVRQAPEKGLEWIAYISSGSSTIYYADRVKGRFTISRDNAKNTLFLQMTSLRSEDTAMYYCSTGTFAYWGQGTPVTVSS
VL: DVVMTQNPLSLPVSLGDQASISCRSSQSLIYNNANTYLHWYRQKPGQSPKLLIYKVSNRFSGVPDRFSGSGSGTDFTLKISRVEAEDLGVYFCSQSTHVPFTFGSGTKLEIKR
notes: also called G34A
B2: mouse monoclonal antibody 1E4 (antibody, V domains shown)
VH: B1 VH
VL: DVVMTQNPLSLPVSLGDQASISCRSSQSLIYNNGNTYLHWYRQKPGQSPKLLIYKVSNRFSGVPDRFSGSGSGTDFTLKISRVEAEDLGVYFCSQSTHVPFTFGSGTKLEIK
notes: Mouse monoclonal antibody from a hybridoma; also called 1E4-mAb; hybridoma antibody 1E4
B3: 1E4-cIgGB with G34 to K substitution in VL (antibody, V domains shown)
VH: B1 VH
VL: B1 VL with A34K
notes: also called G34K
B4: 1E4-cIgGB with G34 to Q substitution in VL (antibody, V domains shown)
VH: B1 VH
VL: B1 VL with A34Q
notes: also called G34Q
B5: 1E4-cIgGB with N33 to K substitution in VL (antibody, V domains shown)
VH: B1 VH
VL: B1 VL with N33K, A34G
notes: also called N33K
B6: mouse monoclonal antibody 1G10 (antibody, V domains shown)
VH: EVQLQQSGPELVKPGASVKISCKASGYTFTDYYMNWVKQSHGKSLEWIGDINPNNGDTSYNQKFKGKAPLTVDKSSSTAYMEVRSLTSEDSAVYFCARGGVLRYPYYYVMDYWGQGTSVTVSS
VL: DIVMTQAAPSVPVTPGESVSISCRSNKSLLHRNGNTYLYWFLQRPGQSPQLLIYRMSNLASGVPDRFSGSGSGTAFTLRISRVEAEDVGVYYCMQHLEFPFTFGGGTKLEIK
notes: Mouse monoclonal antibody from a hybridoma; also called hybridoma antibody 1G10
B7: mouse monoclonal antibody 1G1 (antibody, V domains shown)
VH: EVQLQQSGAELVRPGASVKLSCTASGFNIKDDYMHWVKQRPEQGLEWIGWIDPENGHTKYASKFQGKATITADTSSNTAYLQLSSLTSEDTAVYYCTSLRHYYGSSYVSPHYYWGQGTTLTVSS
VL: DIVMTQSQKFMSRSVGDRVSVTCKASQNVGPNVAWYQQRPGQSPKPLIYSASYRYSGVPDRFTGSGSGTDFTLTISNVQSEDLAEYFCQQYNNYPYTFGGGTKLEIK
notes: Mouse monoclonal antibody from a hybridoma; also called hybridoma antibody 1G1

Key:
canine CD20 ECD2 peptide = biological target: T1, canine CD20 ECD2 peptide; experiment: ELISA on canine CD20 ECD2 peptide (FIG. 5)
[1] = biological target: T2, canine CD20 ECD2-mFc fusion protein; experiment: ELISA, antigen coated at 200 ng/well, antibody 5 ug/ml
Procedure: (§1) This strategy- enabled identification of the specific sequences in canine CD20 that each mAb binds. Binding was tested using a standard ELISA protocol. Briefly, recombinant canine CD20 ECD2-mFc fusion protein and human/canine hybrid variants thereof were diluted in PBS and bound to a 96-well microtiter plate at 200 ng/well by overnight incubation at 4° C. The plate was rinsed three times with PBST buffer, blocked with a solution of 3% BSA in PBS for one hour at 37° C., then rinsed once with PBST. Mouse monoclonal antibodies 1E4, 1G1, and 1G10 were diluted to a concentration of 5 μg/ml in PBS and 50 μl of this dilution was applied to the plate for 1 hour at room temperature. The plate was then rinsed three times with PBST, and Jackson Immunoresearch goat anti-mouse-IgG light chain-specific HRP conjugate (#115-035-174) diluted to 1:5000 in PBS (50 μL) was added to each well, and the plate was incubated for 45 min at room temperature. The plate was washed three times with PBST, then 100 μl of SureBlueTMB substrate (KPL #52-00-03) was added to each well and the plate was incubated for about 10 min at room temperature. The plate was read at 650 nm in a spectrophotometer.

[2] = biological target: T3, Hum-Can CD20 ECD2 V3 (mFc fusion); experiment: as above
Procedure: as §1

[3] = biological target: T4, canine CD20 on canine B cells / B cell …; experiment: FACS on canine B cell lymphoma cells expressing canine CD20
Procedure: The relative affinities of the mouse monoclonal antibodies 1E4, 1G1, and 1G10 for binding to canine CD20 was determined by fluorescent activated cell sorting (FACS) using canine B cell lymphoma cells, which express canine CD20.

[4] = biological target: T5, Hum-Can CD20 ECD2 V2 (mFc fusion); experiment: ELISA, antigen coated at 200 ng/well, antibody 5 ug/ml
Procedure: as §1

[5] = biological target: T6, Hum-Can CD20 ECD2 V4 (mFc fusion); experiment: as above
Procedure: as §1

| Binder | binding result (canine CD20 ECD2 peptide) | binding result [1] | binding result [2] | Kd [3] [nM] | binding result [4] | binding result [5] |
| --- | --- | --- | --- | --- | --- | --- |
| B1 | binds | – | – | – | – | – |
| B2 | – | binds | binds | 0.97 | – | – |
| B3 | binds | – | – | – | – | – |
| B4 | binds | – | – | – | – | – |
| B5 | binds | – | – | – | – | – |
| B6 | – | binds | binds | 0.29 | – | – |
| B7 | – | binds | binds | 19.8 | binds | binds |
